Experimental data published in patent US6602660.

How the values were obtained:
[1] = target: MUC-1 mucin expressed on the surface of PHA activated human T-cells (human) (UniProt P15941); assay: cell-based or functional assay
[2] = target: Anti-human-MUC-1 mAb B27.29; assay: flow cytometry; soluble MUC-1 mucin (1 µg) inhibits B27.29 staining of 3 day PHA activated T-cells
[3] = target: Anti-human-MUC-1 mAb B27.29; assay: flow cytometry; soluble MUC-1 mucin (10 µg) inhibits B27.29 staining of 3 day PHA activated T-cells
[4] = target: Anti-human-MUC-1 mAb B27.29; assay: flow cytometry; soluble MUC-1 mucin (50 µg) inhibits B27.29 staining of 3 day PHA activated T-cells

Substance | Effect on T-cell proliferation (% Inhibition) at 5 µg/ml [1] | Effect on T-cell proliferation (% Inhibition) at 25 µg/ml [1] | % inhibition of binding [2] | % inhibition of binding [3] | % inhibition of binding [4]
Anti-human-MUC-1 mAb B27.29 (antibody) | 58% | 82% |  |  | 
soluble MUC-1 mucin (from UniProt P15941 24-1097) |  |  | 25% | 45% | 65%
